Patent US20260103541A1 (UNIVERSIT T Z RICH, published 2026)

Experiments:
mouse FAP on cells = biological target: T1, mouse FAP on cells (mouse, UniProt P97321 1-761); assay: cell-based binding assay
T1 construct: also called murine FAP; mFAP
T1 sequence: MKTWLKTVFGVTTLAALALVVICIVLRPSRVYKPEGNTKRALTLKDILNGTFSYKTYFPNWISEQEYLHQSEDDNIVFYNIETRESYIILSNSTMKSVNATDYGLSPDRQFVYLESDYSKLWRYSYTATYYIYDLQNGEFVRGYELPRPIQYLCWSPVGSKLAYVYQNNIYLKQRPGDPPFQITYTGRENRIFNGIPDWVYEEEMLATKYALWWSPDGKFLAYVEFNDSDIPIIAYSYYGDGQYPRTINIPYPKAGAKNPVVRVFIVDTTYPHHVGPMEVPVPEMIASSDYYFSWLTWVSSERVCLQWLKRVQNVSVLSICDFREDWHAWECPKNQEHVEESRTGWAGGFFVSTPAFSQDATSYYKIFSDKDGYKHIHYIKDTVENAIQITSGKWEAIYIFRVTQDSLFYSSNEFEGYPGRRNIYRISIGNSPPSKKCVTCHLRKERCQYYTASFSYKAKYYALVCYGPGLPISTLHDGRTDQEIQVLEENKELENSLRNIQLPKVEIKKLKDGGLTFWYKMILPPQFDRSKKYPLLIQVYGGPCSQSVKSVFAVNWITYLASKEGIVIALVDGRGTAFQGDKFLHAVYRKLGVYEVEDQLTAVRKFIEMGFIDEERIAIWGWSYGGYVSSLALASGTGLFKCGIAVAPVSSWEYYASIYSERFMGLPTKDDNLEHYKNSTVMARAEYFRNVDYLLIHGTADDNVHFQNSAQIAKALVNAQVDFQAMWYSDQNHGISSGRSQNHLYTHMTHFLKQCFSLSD

[1] = biological target: T2, recombinant mouse FAP (R&D Systems) (mouse, UniProt P97321 26-761); assay: ELISA, recombinant mouse FAP coated, 100 nM DARPin, anti-FLAG detection
T2 construct: also called Recombinant mFAP
T2 sequence: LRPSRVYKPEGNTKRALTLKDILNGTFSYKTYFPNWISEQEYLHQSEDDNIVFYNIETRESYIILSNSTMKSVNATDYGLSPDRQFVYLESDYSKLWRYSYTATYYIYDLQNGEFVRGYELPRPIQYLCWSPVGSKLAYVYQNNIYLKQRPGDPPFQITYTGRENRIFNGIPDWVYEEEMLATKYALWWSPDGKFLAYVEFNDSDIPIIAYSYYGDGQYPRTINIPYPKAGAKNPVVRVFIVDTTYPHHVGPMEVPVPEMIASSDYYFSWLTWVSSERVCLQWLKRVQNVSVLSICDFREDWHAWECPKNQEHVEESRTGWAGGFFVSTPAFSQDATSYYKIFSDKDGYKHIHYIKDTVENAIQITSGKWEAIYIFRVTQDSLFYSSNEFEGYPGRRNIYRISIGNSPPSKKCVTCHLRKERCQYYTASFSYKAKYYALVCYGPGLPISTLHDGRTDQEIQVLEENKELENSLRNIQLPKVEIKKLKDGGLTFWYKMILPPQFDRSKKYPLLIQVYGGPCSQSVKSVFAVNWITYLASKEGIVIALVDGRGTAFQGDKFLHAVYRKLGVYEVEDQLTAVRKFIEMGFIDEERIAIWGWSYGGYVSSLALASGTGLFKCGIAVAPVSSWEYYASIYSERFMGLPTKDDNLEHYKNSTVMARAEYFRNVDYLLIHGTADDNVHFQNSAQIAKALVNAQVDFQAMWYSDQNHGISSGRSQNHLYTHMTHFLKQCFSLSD
Description: Recombinant mFAP (R&D Systems), and recombinant maltose-binding protein (MBP; inhouse production) for a positive control, were used for a DARPin binding analysis via ELISA. Target protein was coated overnight (O/N) at 4° C. on MaxiSorp™ 96-well plates (Nunc). Blocking was performed for 2 h at RT using ELISA-blocking buffer (PBS containing 0.5% (w/v) BSA). Plates were washed with ELISA-PBS-T (PBS containing 0.05% (v/v) Tween 20). Samples were diluted (100 nM DARPin concentration) in ELISA-PBS-TB (ELISA PBS T containing 0.5% (w/v) BSA) and incubated for 1 h at 4° C. while shaking. DARPin detection was performed with rabbit anti-FLAG antibody (GenScript, A01868; 1:5,000) and goat anti-rabbit-AP antibody (Sigma Aldrich, A3687; 1:10,000), both diluted in ELISA-PBS-TB and incubated for 1 h at 4° C. while shaking. Substrate solution consisting of 3 mM p-nitrophenyl phosphate (pNPP) diluted in pNPP buffer (50 mM NaHCO₃, 50 mM MgCl₂) was used for final detection. A Tecan Infinite M1000 plate reader (Tecan) was used to measure the absorbance at 405 nm.

[2] = biological target: T3, human FAP (fibroblast activation protein) on HT1080hFAP cells (human, UniProt Q12884 1-760); assay: flow cytometry cell-based binding assay, HT1080hFAP against FAP-negative HT1080 cells
T3 construct: also called seprase
T3 sequence: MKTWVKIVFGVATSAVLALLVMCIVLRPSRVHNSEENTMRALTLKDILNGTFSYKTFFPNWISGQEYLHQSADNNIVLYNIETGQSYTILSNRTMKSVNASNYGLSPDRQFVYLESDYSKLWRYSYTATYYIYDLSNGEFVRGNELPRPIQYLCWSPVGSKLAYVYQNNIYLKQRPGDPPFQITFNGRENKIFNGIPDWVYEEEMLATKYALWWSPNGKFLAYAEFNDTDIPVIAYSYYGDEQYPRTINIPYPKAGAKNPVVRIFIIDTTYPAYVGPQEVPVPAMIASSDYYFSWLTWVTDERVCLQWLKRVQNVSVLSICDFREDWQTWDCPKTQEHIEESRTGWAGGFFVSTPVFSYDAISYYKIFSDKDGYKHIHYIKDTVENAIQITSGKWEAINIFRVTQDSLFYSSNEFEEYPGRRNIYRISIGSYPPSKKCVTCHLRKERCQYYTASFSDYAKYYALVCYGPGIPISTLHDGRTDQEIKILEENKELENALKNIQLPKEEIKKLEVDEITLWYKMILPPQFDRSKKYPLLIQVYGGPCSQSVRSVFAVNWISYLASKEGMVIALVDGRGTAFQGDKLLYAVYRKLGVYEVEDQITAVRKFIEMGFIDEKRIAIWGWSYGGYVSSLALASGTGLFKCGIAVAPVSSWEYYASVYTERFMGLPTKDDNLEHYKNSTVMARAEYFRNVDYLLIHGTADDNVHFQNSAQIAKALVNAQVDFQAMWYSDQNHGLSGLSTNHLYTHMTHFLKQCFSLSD

Measured: binding result

B1: DARPin #6 (designed binder)
chain: DLGKKLLEAARAGQDDEVRILMANGADVNASDNWGRTPLHVAAQRGHLEIVDVLLAHGADDNASNRWGSTPLHVAAYTGHLEIVDVLLANGADVNASTANGETPLHAAAHAGHLEIVDVLLKHGADVNAQDKFGKTPFDLAIDNGNEDIAEVLQ
notes: also called designed ankyrin repeat domain #6; not shown: N terminal His6 tag; C terminal FLAG tag
binds: all assays above
